Data from article PMC3737725 (Development (Cambridge, England), 2013).

Target: T1, murine MBP::KSR1 (mouse, UniProt Q61097 1-873)
T1 sequence (looked up): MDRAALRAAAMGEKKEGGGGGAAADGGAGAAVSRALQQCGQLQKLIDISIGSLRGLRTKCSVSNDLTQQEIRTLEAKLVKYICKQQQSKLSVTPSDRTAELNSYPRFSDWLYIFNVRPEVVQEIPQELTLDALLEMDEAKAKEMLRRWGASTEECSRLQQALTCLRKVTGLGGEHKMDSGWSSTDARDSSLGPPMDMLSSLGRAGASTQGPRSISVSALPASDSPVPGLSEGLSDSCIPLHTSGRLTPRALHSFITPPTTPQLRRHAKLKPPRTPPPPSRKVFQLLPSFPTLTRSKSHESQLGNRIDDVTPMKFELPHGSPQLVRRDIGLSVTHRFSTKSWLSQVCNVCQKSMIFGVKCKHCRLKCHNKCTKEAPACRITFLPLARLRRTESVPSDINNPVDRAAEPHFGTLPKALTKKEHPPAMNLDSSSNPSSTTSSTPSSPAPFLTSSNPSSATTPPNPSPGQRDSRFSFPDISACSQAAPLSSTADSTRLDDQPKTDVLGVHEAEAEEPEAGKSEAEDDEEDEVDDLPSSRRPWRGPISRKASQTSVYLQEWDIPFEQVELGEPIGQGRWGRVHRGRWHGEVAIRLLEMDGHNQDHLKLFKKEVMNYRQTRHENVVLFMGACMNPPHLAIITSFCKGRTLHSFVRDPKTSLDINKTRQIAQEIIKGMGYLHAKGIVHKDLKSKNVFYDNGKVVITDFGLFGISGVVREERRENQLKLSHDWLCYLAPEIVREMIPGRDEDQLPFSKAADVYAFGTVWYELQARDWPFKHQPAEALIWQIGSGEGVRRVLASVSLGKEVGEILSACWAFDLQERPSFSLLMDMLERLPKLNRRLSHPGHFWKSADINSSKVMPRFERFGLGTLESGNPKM
Assay: pull-down

binding result: binds
B1: GST::NDK-1::His6 (natural protein, C. elegans, UniProt Q93576 1-153, looked up)
chain: MSNTERTFIAIKPDGVHRGLVGKIIARFEERGYKLVALKQMTASKAHLEVHYQDLKDKPFFPSLIEYMSSGPVVAMVWQGLDVVKQGRSMLGATNPLASAPGTIRGDFCIQTGRNICHGSDAVDSANREIAHWFKQEEINDYASPFINSWVYE
